Results reported in the supplement of paper PMC7877785.
± gives the uncertainty stated by the source.

Experiment: self-splicing fitness, log relative to wild type (ln ratio); higher = more splicing; Tetrahymena group I intron in knt gene, E. coli kanamycin selection, DiMSum; sequences stand for … in CUCUCU…GGAGGGAAAAGUUAUCAGGCAUGCACCUGGUAGCUAGUCUUUAAACCAAUAGAUUGCAUCGGUUUAAAAGGCAAGACCGUCAAAUUGCGGGAAAGGGGUCAACAGCCGUUCAGUACCAAGUCUCAGGGGAAACUUUGAGAUGGCCUUGCAAAGGGUAUGGUAAUAAGCUGACGGACAUGGUCCUAACCACGCAGCCAAGUCCUAAGUCAACAGAUCUUCUGUUGAUAUGGAUGCAGUUCACAGACUAAAUGUCGGUCGGGGAAGAUGUAUUCUUCUCAUAAGAUAUAGUCGGACCUCUCCUUAAUGGGAGCUAGCGGAUGAAGUGAUGCAACACUGGAGCCGCUGGGAACUAAUUUGUAUGCGAAAGUAUAUUGAUUAGUUUUGGAGUACUCGUGGUCG
Procedure, shortened: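 Fitness was computed with DiMSum as the error-weighted combination of replicate fold changes, kanamycin versus none, each normalised to wild type. The library randomised all eight intron nucleotides of the P1ex region, with the intron placed in the knt kanamycin-resistance gene on pET-22b(+) in E. coli BL21(DE3). Six replicate transformations were grown overnight at 37°C or 30°C on LB agar with or without 25 μg/mL kanamycin, plus 100 μg/mL carbenicillin, 50 μM IPTG and 0.2% rhamnose. Pooled colonies were amplicon-sequenced on an Illumina HiSeq 2500.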

Sequence | self-splicing fitness (ln) (30 °C) | self-splicing fitness (ln) (37 °C)
GAGUAGCAAUAUUACGAUCG | -1.06 ± 0.11 | -0.986 ± 0.12
UGUGAGCAAUAUUACGCGGU | -3.67 ± 0.37 | -0.807 ± 0.33
GGGGAGCAAUAUUACGUGAU | -2.84 ± 0.25 | -1.8 ± 0.26
CUCGAGCAAUAUUACGCACU | -2.96 ± 0.3 | –
CACGAGCAAUAUUACGCCUG | -3.26 ± 0.23 | -2.38 ± 0.17
CUACAGCAAUAUUACGCCUC | -3.9 ± 0.3 | -0.901 ± 0.34
AUCUAGCAAUAUUACGGAUA | -3 ± 0.46 | -2.05 ± 0.26
CGGCAGCAAUAUUACGUGCU | -3 ± 0.14 | -1.63 ± 0.16
UCCGAGCAAUAUUACGUCCA | -2.89 ± 0.38 | -2.37 ± 0.34
AUUGAGCAAUAUUACGUAUC | -1.48 ± 0.36 | –
GUUAAGCAAUAUUACGCUCU | -1.24 ± 0.1 | -1.12 ± 0.11
AGUAAGCAAUAUUACGAUGA | -2.3 ± 0.16 | -1.03 ± 0.13
ACAUAGCAAUAUUACGUAGG | -3.02 ± 0.13 | -1.84 ± 0.12
ACCUAGCAAUAUUACGCGUA | -2.46 ± 0.17 | -1.22 ± 0.11
AUAGAGCAAUAUUACGAUCG | -1.08 ± 0.14 | -1.4 ± 0.27
UCAUAGCAAUAUUACGGCAU | -3.91 ± 0.35 | -2.04 ± 0.23
AAACAGCAAUAUUACGAUCU | -0.534 ± 0.063 | 0.138 ± 0.076
CGCUAGCAAUAUUACGGGCA | -0.187 ± 0.07 | -0.269 ± 0.079
UCAUAGCAAUAUUACGUCGA | -0.314 ± 0.093 | -0.745 ± 0.13
UCGCAGCAAUAUUACGUCAU | -3.77 ± 0.14 | -2.65 ± 0.13
AGUAAGCAAUAUUACGCAUC | -4.12 ± 0.29 | -1.48 ± 0.27
UAGUAGCAAUAUUACGGUAA | -2.68 ± 0.3 | -2.18 ± 0.29
CCCCAGCAAUAUUACGCCCA | -2.11 ± 0.26 | -1.37 ± 0.25
AGCGAGCAAUAUUACGAACA | -2.63 ± 0.23 | -1.89 ± 0.2

Sequence | self-splicing fitness (ln) (30 °C) | self-splicing fitness (ln) (37 °C)
CUCCAGCAAUAUUACGCUUA | -4.14 ± 0.34 | -2.49 ± 0.24
UCACAGCAAUAUUACGCCAA | -3.45 ± 0.44 | -2.74 ± 0.38
CGAUAGCAAUAUUACGUCGA | -3.77 ± 0.25 | -1.15 ± 0.12
AGCGAGCAAUAUUACGUACU | -0.777 ± 0.088 | -0.674 ± 0.092
AAAUAGCAAUAUUACGAUGA | -0.773 ± 0.096 | -0.0131 ± 0.11
CGUCAGCAAUAUUACGUGUC | -3.72 ± 0.17 | -2.96 ± 0.19
UUCUAGCAAUAUUACGGUAA | -1.17 ± 0.13 | -0.408 ± 0.085
GGUAAGCAAUAUUACGAGAG | -3.7 ± 0.4 | -3.25 ± 0.25
GAGAAGCAAUAUUACGAGCC | -1.03 ± 0.097 | -0.808 ± 0.15
CCCAAGCAAUAUUACGAGAG | -2.99 ± 0.079 | -1.93 ± 0.079
AAGGAGCAAUAUUACGAUUU | -0.545 ± 0.12 | 0.0878 ± 0.15
UCAUAGCAAUAUUACGCGGG | -2.79 ± 0.14 | -1.99 ± 0.12
AGUAAGCAAUAUUACGAGGU | -2.56 ± 0.18 | -2.89 ± 0.22
CCCAAGCAAUAUUACGGGGC | -4.7 ± 0.39 | -3.08 ± 0.27
AAAUAGCAAUAUUACGUUAC | -3.44 ± 0.22 | -2.77 ± 0.27
AUUUAGCAAUAUUACGAAAC | -2.83 ± 0.22 | -2 ± 0.27
AUUGAGCAAUAUUACGCCCG | -3.02 ± 0.47 | –
UGGAAGCAAUAUUACGGGCG | -0.122 ± 0.1 | -0.0506 ± 0.11
UCUAAGCAAUAUUACGUGUA | -1.6 ± 0.12 | -0.704 ± 0.1
AAGGAGCAAUAUUACGCGUA | -3.11 ± 0.28 | -1.29 ± 0.17
CCGCAGCAAUAUUACGAAAA | -3.37 ± 0.21 | -2.39 ± 0.16
CCAAAGCAAUAUUACGGUGU | -3.74 ± 0.19 | -2.97 ± 0.15
ACACAGCAAUAUUACGGCUU | -0.496 ± 0.04 | -0.0695 ± 0.057
CCGCAGCAAUAUUACGUUGU | -3.23 ± 0.16 | -3.8 ± 0.26
